Laboratory results: patent publication US20170101472A1 (Regeneron, published 2017)

T1: human LAG3 expressed on HEK293 cells (human, UniProt P18627 23-525)
T1 construct: also called hLAG3; HEK293/hLAG3
T1 sequence: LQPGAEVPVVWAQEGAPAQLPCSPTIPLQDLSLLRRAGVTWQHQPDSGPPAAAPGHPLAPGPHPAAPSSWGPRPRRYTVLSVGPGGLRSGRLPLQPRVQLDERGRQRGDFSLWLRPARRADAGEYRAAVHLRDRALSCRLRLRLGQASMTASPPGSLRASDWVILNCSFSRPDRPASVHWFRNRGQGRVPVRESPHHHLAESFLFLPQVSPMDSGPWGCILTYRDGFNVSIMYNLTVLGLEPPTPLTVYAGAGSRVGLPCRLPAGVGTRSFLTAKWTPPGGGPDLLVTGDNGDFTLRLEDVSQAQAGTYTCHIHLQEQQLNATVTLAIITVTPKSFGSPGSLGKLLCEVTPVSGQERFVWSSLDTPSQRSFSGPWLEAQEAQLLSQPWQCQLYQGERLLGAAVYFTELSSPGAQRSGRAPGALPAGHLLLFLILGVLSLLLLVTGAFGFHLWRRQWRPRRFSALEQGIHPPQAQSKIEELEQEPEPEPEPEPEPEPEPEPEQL

T2: human LAG3 chimera (extracellular domain of human LAG3 and trans-membrane/cytoplasmic domain of human CD300a) … (human, UniProt P18627 23-450; Q9UGN4 181-299, limits assumed)
T2 sequence (looked up): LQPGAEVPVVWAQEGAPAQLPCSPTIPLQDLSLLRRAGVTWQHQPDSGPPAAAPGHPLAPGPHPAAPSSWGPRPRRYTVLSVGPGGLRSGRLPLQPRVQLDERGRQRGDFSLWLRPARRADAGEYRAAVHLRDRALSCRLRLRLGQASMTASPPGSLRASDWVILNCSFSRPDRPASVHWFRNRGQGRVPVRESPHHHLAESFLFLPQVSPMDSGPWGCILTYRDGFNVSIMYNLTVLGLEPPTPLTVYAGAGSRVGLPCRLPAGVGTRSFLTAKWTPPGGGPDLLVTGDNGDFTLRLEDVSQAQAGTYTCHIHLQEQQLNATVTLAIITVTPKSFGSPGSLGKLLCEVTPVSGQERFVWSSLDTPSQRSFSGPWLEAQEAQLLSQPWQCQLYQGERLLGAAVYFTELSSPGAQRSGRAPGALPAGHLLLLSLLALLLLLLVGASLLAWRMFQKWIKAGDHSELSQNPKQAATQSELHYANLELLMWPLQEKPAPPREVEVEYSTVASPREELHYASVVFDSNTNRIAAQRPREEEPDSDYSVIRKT


How the values were obtained:
[1] = target: T1, human LAG3 expressed on HEK293 cells; experiment: cell adherence assay, blocks RAJI (human MHCII) cells on HEK293-hLAG3
Procedure: (§1) Cells were plated into sterile Nunclon™ Delta 96-Well MicroWell™ Black Optical Bottom Plates (Thermo Scientific). The wells from the perimeter of the plate were not included in the assay design to avoid edge effects.
(§2) On the day of treatment, all antibodies were serially (1:3) diluted in RPMI media (without FBS or supplements added). The 9-point dilution ranged between 45 pM to 300 nM, with the last dilution point containing no mAb. […] While the plated HEK293-LAG3 cells were incubating with the test or control antibodies, non-adherent B-cells (RAJI or A20) were labeled with Calcein AM using the following procedure. RAJI and A20 suspension cells were harvested and centrifuged at 1,200 rpm for 5 minutes. Cell pellets were resuspended in 1×PBS and counted. Cells were washed with RPMI, and resuspended in RPMI at a concentration of 10⁶ cells per 1 ml. Cells were labeled by adding 5 μL of Calcein AM per 1 ml of cell suspension and incubated for 30 min at 37° C., at 5% CO₂. […] Subsequently, 10 μL of BD Pharmingen Fc Block (0.5 mg/mL) was added per 1 ml of the Calcein AM labeled cells, which were incubated at RT for 10 minutes. The Calcein AM-stained, Fc-blocked RAJI or A20 cells were resuspended in RPMI to a final concentration of 3×10⁶ cells per 1 ml and subsequently used in the adherence assay.
(§3) The labeled suspension cells were incubated with the HEK293 monolayer for 1 hour at 37° C., at 5% CO₂.

[2] = target: T1, human LAG3 expressed on HEK293 cells; experiment: electrochemiluminescence cell binding
Procedure: (§4) To investigate the ability of a panel of anti-LAG3 monoclonal antibodies to bind cell-surface expressed LAG3, an in vitro binding assay utilizing human and monkey LAG3 expressing cell lines in an electrochemiluminescence based detection platform [Meso Scale Diagnostics, Rockville, Md.—(MSD)] was developed.
(§5) Experiments were carried out according to following procedure. Cells from the three cell lines described above were rinsed once in 1×PBS buffer without Ca²⁺/Mg²⁺ followed by 10-minute incubation at 37° C. with Enzyme Free Cell Dissociation Solution. […] Approximately 10,000 cells per well in the cell-washing buffer were seeded into the 96-well carbon electrode plates (MULTI-ARRAY high bind plate, MSD) and incubated for 1 hour at 37° C. to allow the cells to adhere. Nonspecific binding sites were blocked by 2% BSA (w/v) in PBS for 1 hour at room temperature. […] The plates were then washed to remove the unbound antibodies using an AquaMax2000 plate washer (MDS Analytical Technologies). The plate-bound antibodies were detected with a SULFO-TAG™-conjugated anti-human IgG antibody (MSD) for 1 hour at room temperature. After washes, the plates were developed with the Read Buffer (MSD) according to manufacturer's recommended procedure and the luminescent signals were recorded with a SECTOR Imager 6000 (MSD) instrument. The direct binding signals (in relative light units—RLU) were analyzed as a function of the antibody concentration and the data were fitted with a sigmoidal (four-parameter logistic) dose-response model using Graph Pad Prism™ software. The potency of each antibody was determined by calculating EC₅₀.

[3] = target: T1, human LAG3 expressed on HEK293 cells; experiment: electrochemiluminescence cell binding, HEK293-hLAG3
Procedure: as §4, §5

[4] = target: T2, human LAG3 chimera (extracellular …); experiment: cell-based or functional assay
[5] = target: T1, human LAG3 expressed on HEK293 cells; experiment: cell adherence assay, blocks A20 (mouse MHCII) cells on HEK293-hLAG3
Procedure: as §1, §2, §3

Binder	IC50 [1]	Ratio of 100 nM antibody binding HEK293-hLAG3 to HEK293 cells [2]	EC50 [3]	EC50, AP1-Luc signaling, bispecific mode [4]	EC50, AP1-Luc signaling, peptide mode [4]	IC50 [5]
H4H17819P (antibody, human IgG4, V domains shown, H4H = human IgG4 Fc with S108P hinge mutation) VH: EVQLVESGGGLVQPGGSLRLSCVASGFTFSLYAMTWVRQVPGKGLEWVSTISGSGGGTYYTDSVKGRFTISRDNSKNTLYLQMNSLRADDTAVFYCTKESTTGTYSYFYGMDVWGQGTTVTVSS VL: DIQMTQSPSSLSASVGDRVTITCRASQTISSYLNWYQQKPGKAPKLLIYAASSLQSGVPSRFSGSGSGTDFTLTLSGLQPEDFATYYCQQSYSTPLTFGGGTKVEIK	17 nM	22.7	0.69 nM	> 100 nM	2.12 nM	16 nM
H4H15482P (antibody, human IgG4 S228P, kappa, H4H = human IgG4 Fc with S108P) heavy: not shown light: EIVLTQSPATLSLSPGERTTLSCRASQRISTYLAWYQQKPGQAPRLLIYDASKRATGIPARFSGSGSGTGFTLTISSLEPEDFAVYYCQQRSNWPLTFGGGTKVEIKRTVAAPSVFIFPPSDEQLKSGTASVVCLLNNFYPREAKVQWKVDNALQSGNSQESVTEQDSKDSTYSLSSTLTLSKADYEKHKVYACEVTHQGLSSPVTKSFNRGEC	15 nM		24.7 nM	> 100 nM	2.48 nM	11 nM
H4H15498P2 (antibody, human IgG4, V domains shown, H4H = human IgG4 Fc with S108P hinge mutation) VH: EVQLVESGGGLVQPGGSLRLSCAASGFTFTSYAMTWVRQAPGKGLEWVSDISGSGGRTYYADSVKGRFTISRDNSKNMLYLQMNILRAEDTAVYHCAKGTGQQVDLYNYYYALDVWGQGTTVTVSS VL: not shown	15 nM	38.8	2.95 nM	6.62 nM	5.89 nM	30 nM
H4H15479P (antibody, human IgG4, V domains shown) VH: QVQLQQWGAGLLNPSETLSLTCAVYGGAFSDYYWNWIRQPPGKGLEWIGEINHRGSTNYNPSLKSRVTISVDTSKNQFSLRMSSVTAADAAVYYCARGEDYDIWNGYYQEKWGQGTLVTVSS VL: EIVLTQSPATLSLSPGERATLSCRASQSISTYLAWYQQKPGQAPRLLIYDASKRATGIPARFSGSGSGTDFTLTISSLEPEDFVVYYCHQRSNWPLTFGGGTKVEIK	31 nM	20.1	52 nM	0.145 nM	0.284 nM	11 nM
H4H15483P (antibody, human IgG4, V domains shown, H4H = human IgG4 Fc with S108P hinge mutation) VH: QVQLQQWGAGLLPPSETLSLICAVYGGSFSGYYWSWIRQPPGKGLEWIGEINHRGSTNYNPSLKSRATISVDTSKNQFSLKLSSVTAADTAVYYCSRGEDYYDSSGYSYYFDYWGQGTLVTVSS VL: EIVLTQSPATLSLSPGERATLSCRASQSVSSYLAWYQQKPGQAPRLLIYDASNRATGIPARFSGSGSGTDFTLTISSLEPEDFAVYYCQQRSNWPLTFGGGTKVEIK	19 nM	6.6	17.2 nM	3.69 nM	2.54 nM	16 nM
H4H14813N (antibody, human IgG4, V domains shown, H4H = human IgG4 Fc with S108P hinge mutation) VH: QVQLQQWGAGLLKPSETLSLTCAVYGGSFSGYYWNWIRQPPGKGLEWVGEISHRGSTNYNPSLKSRVTISLDTSKNQFSLKLTSVTAADTAVYYCSRDEELEFRFFDYWGQGTLVTVSS VL: EIVLTQSPATLSLSPGERATLSCRASQSVSSYLAWYQQKPGQAPRLLVYGASNRATGIPARFSGSGSGTDFTLTISSLEPEDFAFYYCQQRSNWPLTFGGGTKVEIK	17 nM	8.9	19.9 nM	1.07 nM	1.01 nM	10 nM

Now from value to binder:

IC50 [1]	Ratio of 100 nM antibody binding HEK293-hLAG3 to HEK293 cells [2]	EC50 [3]	EC50, AP1-Luc signaling, bispecific mode [4]	EC50, AP1-Luc signaling, peptide mode [4]	IC50 [5]	Binder
6 nM	19.8	20.3 nM	0.688 nM	0.816 nM	10 nM	H4sH14813N (antibody, human IgG4 S228P, kappa, V domains shown, H4sH = modified human IgG4 Fc) VH: QVQLQQWGAGLLKPSETLSLTCAVYGGSFSGYYWNWIRQPPGKGLEWVGEISHRGSTNYNPSLKSRVTISLDTSKNQFSLKLTSVTAADTAVYYCSRDEELEFRFFDYWGQGTLVTVSS VL: EIVLTQSPATLSLSPGERATLSCRASQSVSSYLAWYQQKPGQAPRLLVYGASNRATGIPARFSGSGSGTDFTLTISSLEPEDFAFYYCQQRSNWPLTFGGGTKVEIKR
3.3 nM			0.518 nM	0.806 nM	3.8 nM	H4sH15482P (antibody, human IgG4 S228P, kappa, H4sH = modified human IgG4 Fc; also called mAb1) heavy: QVQLVESGGGVVQPGRSLRLSCVASGFTFSSYGMHWVRQAPGKGLEWVAIIWYDGSNKYYADSVKGRFTISRDNSKNTQYLQMNSLRAEDTAVYYCASVATSGDFDYYGMDVWGQGTTVTVSSASTKGPSVFPLAPCSRSTSESTAALGCLVKDYFPEPVTVSWNSGALTSGVHTFPAVLQSSGLYSLSSVVTVPSSSLGTKTYTCNVDHKPSNTKVDKRVESKYGPPCPPCPAPPVAGPSVFLFPPKPKDTLMISRTPEVTCVVVDVSQEDPEVQFNWYVDGVEVHNAKTKPREEQFNSTYRVVSVLTVLHQDWLNGKEYKCKVSNKGLPSSIEKTISKAKGQPREPQVYTLPPSQEEMTKNQVSLTCLVKGFYPSDIAVEWESNGQPENNYKTTPPVLDSDGSFFLYSRLTVDKSRWQEGNVFSCSVMHEALHNHYTQKSLSLSLGK light: EIVLTQSPATLSLSPGERTTLSCRASQRISTYLAWYQQKPGQAPRLLIYDASKRATGIPARFSGSGSGTGFTLTISSLEPEDFAVYYCQQRSNWPLTFGGGTKVEIKRTVAAPSVFIFPPSDEQLKSGTASVVCLLNNFYPREAKVQWKVDNALQSGNSQESVTEQDSKDSTYSLSSTLTLSKADYEKHKVYACEVTHQGLSSPVTKSFNRGEC
16 nM	99.8	2.87 nM	> 100 nM	4.61 nM	21 nM	H4sH15498P2 (antibody, V domains shown, H4sH = human IgG4 Fc with 2 or more amino acid changes as disclosed in US20140243504) VH: EVQLVESGGGLVQPGGSLRLSCAASGFTFTSYAMTWVRQAPGKGLEWVSDISGSGGRTYYADSVKGRFTISRDNSKNMLYLQMNILRAEDTAVYHCAKGTGQQVDLYNYYYALDVWGQGTTVTVSS VL: not shown
